In patent US20240117018A1:

Tests used:
Test in all cases: cell-based or functional assay
[1] = biological target: HIV-1 Env of pseudovirus 1054_07_TC4_1499 (HIV-1)
[2] = biological target: HIV-1 Env of pseudovirus 6244_13_B5_4576 (HIV-1)
[3] = biological target: HIV-1 Env of pseudovirus 3415.v1.c1 (HIV-1)
[4] = biological target: HIV-1 Env of pseudovirus CAP45.2.00.G3 (HIV-1)
[5] = biological target: HIV-1 Env pseudovirus 6041.v3.c23 (HIV-1)
[6] = biological target: HIV-1 Env of pseudovirus SC05_8C11_2344 (HIV-1)
[7] = biological target: HIV-1 Env pseudovirus 6811.v7.c18 (HIV-1)
[8] = biological target: HIV-1 Env of pseudovirus QH0692.42 (HIV-1)
[9] = biological target: HIV-1 Env pseudovirus 6540.v4.c1 (HIV-1)
[10] = biological target: Env of HIV-1 pseudovirus 1054_07_TC4_1499 (HIV-1)
[11] = biological target: Env of HIV-1 pseudovirus CAP210.2.00.E8 (HIV-1)
[12] = biological target: Env of HIV-1 pseudovirus SC422661.8 (HIV-1)
[13] = biological target: Env of HIV-1 pseudovirus HIV-0013095-2.11 (HIV-1)
[14] = biological target: Env of HIV-1 pseudovirus 246F C1G (HIV-1)
[15] = biological target: Env of HIV-1 pseudovirus QH0692.42 (HIV-1)
[16] = biological target: Env of HIV-1 pseudovirus HIV-16055-2.3 (HIV-1)
[17] = biological target: Env of HIV-1 pseudovirus 928-28 (HIV-1)
[18] = biological target: Env of HIV-1 pseudovirus CNE53 (HIV-1)
[19] = biological target: Env of HIV-1 pseudovirus Q461.e2 (HIV-1)
[20] = biological target: Env of HIV-1 pseudovirus TRO.11 (HIV-1)
[21] = biological target: Env of HIV-1 pseudovirus ZM53M.PB12 (HIV-1)
[22] = biological target: Env of HIV-1 pseudovirus 1012_11_TC21_3257 (HIV-1)
[23] = biological target: Env of HIV-1 pseudovirus CAP45.2.00.G3 (HIV-1)
[24] = biological target: Env of HIV-1 pseudovirus 1006_11_C3_1601 (HIV-1)
[25] = biological target: HIV-1 Env pseudovirus Du422.1 (HIV-1)
[26] = biological target: HIV-1 Env pseudovirus TRO.11 (HIV-1)
[27] = biological target: HIV-1 Env pseudovirus REJO4541.67 (HIV-1)
[28] = biological target: HIV-1 Env pseudovirus TRJO4551.58 (HIV-1)
[29] = biological target: HIV-1 Env pseudovirus HIV-001428-2.42 (HIV-1)
[30] = biological target: HIV-1 Env pseudovirus 62357_14_D3_4589 (HIV-1)
[31] = biological target: HIV-1 Env pseudovirus SC05_8C11_2344 (HIV-1)
[32] = biological target: HIV-1 Env pseudovirus WEAU_d15_410_787 (HIV-1)
[33] = biological target: HIV-1 Env pseudovirus 6535.3 (HIV-1)
[34] = biological target: HIV-1 Env pseudovirus CAP45.2.00.G3 (HIV-1)
[35] = biological target: HIV-1 Env pseudovirus Ce2060_G9 (HIV-1)
[36] = biological target: HIV-1 Env pseudovirus QH0692.42 (HIV-1)
[37] = biological target: HIV-1 Env pseudovirus ZM214M.PL15 (HIV-1)

Substance: 3BNC117 (antibody)
- IC50 [1]: 0.07 µg/mL
- IC80 [1]: 0.49 µg/mL
- IC50 [2]: 0.04 µg/mL
- IC80 [2]: 0.15 µg/mL
- IC50 [3]: 0.17 µg/mL
- IC80 [3]: 0.47 µg/mL
- IC50 [4]: 3.88 µg/mL
- IC80 [4]: > 50 µg/mL
- IC50 (Titer in TZM.bl cells) [5]: 0.01 µg/mL
- IC80 (Titer in TZM.bl cells) [5]: 0.07 µg/mL
- IC50 [6]: 0.15 µg/mL
- IC80 [6]: 0.51 µg/mL
- IC50 (Titer in TZM.bl cells) [7]: 0.03 µg/mL
- IC80 (Titer in TZM.bl cells) [7]: 0.17 µg/mL
- IC50 [8]: 0.13 µg/mL
- IC80 [8]: 0.49 µg/mL
- IC50 (Titer in TZM.bl cells) [9]: > 50 µg/mL
- IC80 (Titer in TZM.bl cells) [9]: > 50 µg/mL

Substance: 8ANC195 (antibody)
- IC50 [1]: 1.02 µg/mL
- IC80 [1]: 6.75 µg/mL
- IC50 [2]: > 50 µg/mL
- IC80 [2]: > 50 µg/mL
- IC50 [3]: 17.7 µg/mL
- IC80 [3]: 17.7 µg/mL
- IC50 [4]: 28.3 µg/mL
- IC80 [4]: > 50 µg/mL
- IC50 (Titer in TZM.bl cells) [5]: > 50 µg/mL
- IC80 (Titer in TZM.bl cells) [5]: > 50 µg/mL
- IC50 [6]: 0.47 µg/mL
- IC80 [6]: 3.06 µg/mL
- IC50 (Titer in TZM.bl cells) [7]: 5.34 µg/mL
- IC80 (Titer in TZM.bl cells) [7]: 27.6 µg/mL
- IC50 [8]: 2.71 µg/mL
- IC80 [8]: 17.1 µg/mL
- IC50 (Titer in TZM.bl cells) [9]: > 50 µg/mL
- IC80 (Titer in TZM.bl cells) [9]: > 50 µg/mL

Substance: 10-1074 (antibody)
- IC50 [10]: 0.129 µg/mL
- IC80 [10]: 0.563 µg/mL
- IC50 [11]: > 50 µg/mL
- IC80 [11]: > 50 µg/mL
- IC50 [12]: 0.091 µg/mL
- IC80 [12]: 0.418 µg/mL
- IC50 [13]: > 50 µg/mL
- IC80 [13]: > 50 µg/mL
- IC50 [14]: 0.022 µg/mL
- IC80 [14]: 0.111 µg/mL
- IC50 [15]: 0.191 µg/mL
- IC80 [15]: 0.929 µg/mL
- IC50 [16]: > 50 µg/mL
- IC80 [16]: > 50 µg/mL
- IC50 [17]: 0.847 µg/mL
- IC80 [17]: 4.7 µg/mL
- IC50 [18]: 0.039 µg/mL
- IC80 [18]: 0.141 µg/mL
- IC50 [19]: > 50 µg/mL
- IC80 [19]: > 50 µg/mL
- IC50 [20]: 0.008 µg/mL
- IC80 [20]: 0.057 µg/mL
- IC50 [21]: > 50 µg/mL
- IC80 [21]: > 50 µg/mL
- IC50 [22]: 0.008 µg/mL
- IC80 [22]: 0.059 µg/mL
- IC50 [23]: > 50 µg/mL
- IC80 [23]: > 50 µg/mL
- IC50 [24]: 0.003 µg/mL
- IC80 [24]: 0.013 µg/mL

Substance: 10E8 (antibody)
- IC50 [10]: 0.046 µg/mL
- IC80 [10]: 0.305 µg/mL
- IC50 [11]: 0.798 µg/mL
- IC80 [11]: 3.89 µg/mL
- IC50 [12]: 0.445 µg/mL
- IC80 [12]: 2.71 µg/mL
- IC50 [13]: 0.031 µg/mL
- IC80 [13]: 0.213 µg/mL
- IC50 [14]: 2.22 µg/mL
- IC80 [14]: 9.94 µg/mL
- IC50 [15]: 0.442 µg/mL
- IC80 [15]: 4.05 µg/mL
- IC50 [16]: 0.722 µg/mL
- IC80 [16]: 6.5 µg/mL
- IC50 [17]: 0.384 µg/mL
- IC80 [17]: 1.96 µg/mL
- IC50 [18]: 0.326 µg/mL
- IC80 [18]: 1.92 µg/mL
- IC50 [19]: 2.11 µg/mL
- IC80 [19]: > 10 µg/mL
- IC50 [20]: 0.034 µg/mL
- IC80 [20]: 0.25 µg/mL
- IC50 [21]: 3.98 µg/mL
- IC80 [21]: > 10 µg/mL
- IC50 [22]: 0.244 µg/mL
- IC80 [22]: 4.21 µg/mL
- IC50 [23]: 1.82 µg/mL
- IC80 [23]: > 10 µg/mL
- IC50 [24]: 0.172 µg/mL
- IC80 [24]: 3 µg/mL

Substance: PG9 (antibody)
- IC50 [10]: > 50 µg/mL
- IC80 [10]: > 50 µg/mL
- IC50 [11]: 0.04 µg/mL
- IC80 [11]: 0.173 µg/mL
- IC50 [12]: 0.553 µg/mL
- IC80 [12]: 7.05 µg/mL
- IC50 [13]: 0.01 µg/mL
- IC80 [13]: 0.03 µg/mL
- IC50 [14]: > 50 µg/mL
- IC80 [14]: > 50 µg/mL
- IC50 [15]: > 50 µg/mL
- IC80 [15]: > 50 µg/mL
- IC50 [16]: 0.021 µg/mL
- IC80 [16]: 0.06 µg/mL
- IC50 [17]: 0.101 µg/mL
- IC80 [17]: 0.45 µg/mL
- IC50 [18]: 0.131 µg/mL
- IC80 [18]: 0.6 µg/mL
- IC50 [19]: 1.48 µg/mL
- IC80 [19]: 8.72 µg/mL
- IC50 [20]: 43.2 µg/mL
- IC80 [20]: > 50 µg/mL
- IC50 [21]: 0.069 µg/mL
- IC80 [21]: 0.221 µg/mL
- IC50 [22]: 0.172 µg/mL
- IC80 [22]: 0.605 µg/mL
- IC50 [23]: 0.007 µg/mL
- IC80 [23]: 0.029 µg/mL
- IC50 [24]: 0.366 µg/mL
- IC80 [24]: 1.91 µg/mL

Substance: VRC01 (antibody)
- IC50 (Titer in TZM.bl cells) [25]: > 50 µg/mL
- IC80 (Titer in TZM.bl cells) [25]: > 50 µg/mL
- IC50 (Titer in TZM.bl cells) [26]: 0.21 µg/mL
- IC80 (Titer in TZM.bl cells) [26]: 0.83 µg/mL
- IC50 (Titer in TZM.bl cells) [27]: 0.06 µg/mL
- IC80 (Titer in TZM.bl cells) [27]: 0.25 µg/mL
- IC50 (Titer in TZM.bl cells) [28]: 0.08 µg/mL
- IC80 (Titer in TZM.bl cells) [28]: 0.21 µg/mL
- IC50 (Titer in TZM.bl cells) [29]: 0.02 µg/mL
- IC80 (Titer in TZM.bl cells) [29]: 0.06 µg/mL
- IC50 (Titer in TZM.bl cells) [30]: 0.96 µg/mL
- IC80 (Titer in TZM.bl cells) [30]: 4.68 µg/mL
- IC50 (Titer in TZM.bl cells) [31]: 0.64 µg/mL
- IC80 (Titer in TZM.bl cells) [31]: 1.91 µg/mL
- IC50 (Titer in TZM.bl cells) [5]: 0.02 µg/mL
- IC80 (Titer in TZM.bl cells) [5]: 0.08 µg/mL
- IC50 (Titer in TZM.bl cells) [32]: 0.12 µg/mL
- IC80 (Titer in TZM.bl cells) [32]: 0.26 µg/mL
- IC50 (Titer in TZM.bl cells) [7]: 0.09 µg/mL
- IC80 (Titer in TZM.bl cells) [7]: 0.26 µg/mL
- IC50 (Titer in TZM.bl cells) [33]: 0.54 µg/mL
- IC80 (Titer in TZM.bl cells) [33]: 2.7 µg/mL
- IC80 (Titer in TZM.bl cells) [34]: > 50 µg/mL
- IC50 (Titer in TZM.bl cells) [35]: 0.29 µg/mL
- IC80 (Titer in TZM.bl cells) [35]: 1.48 µg/mL
- IC50 (Titer in TZM.bl cells) [36]: 1.5 µg/mL
- IC80 (Titer in TZM.bl cells) [36]: 4.8 µg/mL
- IC50 (Titer in TZM.bl cells) [37]: 0.44 µg/mL
- IC80 (Titer in TZM.bl cells) [37]: 2.6 µg/mL
- IC50 (Titer in TZM.bl cells) [9]: > 50 µg/mL
- IC80 (Titer in TZM.bl cells) [9]: > 50 µg/mL

Substance: VRC07 (antibody)
- IC50 [1]: 0.239 µg/mL
- IC80 [1]: 1.46 µg/mL
- IC50 [2]: 0.065 µg/mL
- IC80 [2]: 0.23 µg/mL
- IC50 [3]: 0.036 µg/mL
- IC80 [3]: 0.152 µg/mL
- IC50 [4]: 0.355 µg/mL
- IC80 [4]: 3.09 µg/mL
- IC50 (Titer in TZM.bl cells) [5]: 0.018 µg/mL
- IC80 (Titer in TZM.bl cells) [5]: 0.058 µg/mL
- IC50 [6]: 0.133 µg/mL
- IC80 [6]: 0.401 µg/mL
- IC50 (Titer in TZM.bl cells) [7]: 0.093 µg/mL
- IC80 (Titer in TZM.bl cells) [7]: 0.435 µg/mL
- IC50 [8]: 0.5 µg/mL
- IC80 [8]: 1.86 µg/mL
- IC50 (Titer in TZM.bl cells) [9]: > 50 µg/mL
- IC80 (Titer in TZM.bl cells) [9]: > 50 µg/mL
